Experimental data published in US20250043005A1 (GENEQUANTUM HEALTHCARE SUZHOU, published 2025).

B1: Recombinant hIL21R protein (receptor)
chain: not shown
notes: also called human IL21 receptor; Hu-IL21R
B2: Ab0033 (antibody, human IgG1, kappa, N297A, V domains shown)
VH: QVQLQESGPGLVKPSETLSLTCTVSGYSITSGYNWHWIRQFPGNGLEWMGYIHHSSITNYNPSLKSRITISRDTSKNQFSLKLSSVTAADTATYYCAREGYDYDWFAYWGQGTLVTVSS
VL: DIVLTQSPDFQSVTPKEKVTITCRASQSISNNLHWYQQKPDESPKLLIKYASQSISGIPSRFSGSGSGTDFTLTINSVEAEDFAMYFCQQSKSWPFTFGQGTRLEIKR
notes: Signal peptides are not part of the purified protein; also called antibody moiety Ab0033; derived from Ab0002 (3F2)

Tests used:
LC0030-1 = target: T1, LC0030-1 (Homo sapiens (Human), UniProt P0DOX7 1-214; P0DOX5 2-449 = IgG part); assay: ELISA, recombinant hIL21R coated at 0.5 ug/mL, detection with anti-human-IgG (H+L)-HRP, OD450
T1 construct: Antibody-cytokine fusion (immunocytokine) made by Sortase A conjugation; also called fusion protein prepared from Ab0030 containing one hIL21 (isoform 1); DAR1
Procedure: (§1) The binding activities of the fusion proteins to human IL21 receptor (hIL21R or Hu-IL21R) were determined using ELISA. Recombinant hIL21R protein were diluted using coating buffer (1×PBS) to 0.5 μg/mL and coated to an ELISA plate at 4° C. overnight. The plate was blocked with 5% slim milk powder in coating buffer at 37° C. for 1 h. […] Finally, 1:5000 diluted anti-human-IgG (H+L)-HRP was added. After an incubation at 37° C. for 1 h, TMB substrate was added for color development. The data was collected using a microplate reader.

[1] = target: T2, Recombinant hPD-L1 protein (Acrobiosystems, PD1-H5253) (human, UniProt Q9NZQ7 19-238); assay: ELISA, recombinant hPD-L1 coated at 0.5 ug/mL, detection with anti-human-IgG (H+L)-HRP, OD450
T2 construct: also called human PD-L1
T2 sequence (Q9NZQ7 19-238 limits assumed): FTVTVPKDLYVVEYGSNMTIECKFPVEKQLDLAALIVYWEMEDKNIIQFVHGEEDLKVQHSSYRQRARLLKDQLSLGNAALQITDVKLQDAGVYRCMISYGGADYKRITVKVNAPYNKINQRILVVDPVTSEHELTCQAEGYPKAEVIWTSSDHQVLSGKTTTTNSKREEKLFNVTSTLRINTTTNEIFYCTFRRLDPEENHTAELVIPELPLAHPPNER
Procedure: Recombinant hPD-L1 was diluted in coating buffer (1×PBS) to 0.5 μg/mL and coated to an ELISA plate at 4° C. overnight. The plate was blocked with 5% slim milk powder in coating buffer at 37° C. for 1 h. […] Finally, 1:5000 diluted anti-human-IgG (H+L)-HRP was added. After an incubation at 37° C. for 1 h, TMB substrate was added for color development. The data was collected using a microplate reader.

[2] = target: T3, His-tagged human IL21R (hIL21R-His) (human, UniProt Q9HBE5 20-232, limits assumed); assay: SPR (Biacore T200), Ab0033 captured on Protein A chip, hIL21R-His as analyte
T3 construct: not shown: His tag
Procedure: (§2) The Biacore T200 biosensor is equipped with Sensor Chip Protein A. The proteins (diluted to 1 μg/mL) to be tested were injected at 10 μL/min into the Biacore T200 biosensor for 50 sec, in order to reach the required protein density (about 300 RU). Then His-tagged human IL21R (hIL21R-His, 200 nM) or human PD-L1 (hPD-L1-His, 100 nM) were injected at 30 μL/min into the system for 180 sec. The dissociation was monitored for 600 sec. After each cycle, glycine buffer pH 1.7 (30 μL/min, 30 sec) was used to regenerate the chip.

[3] = target: B1; assay: ELISA, recombinant hIL21R coated at 0.5 ug/mL, detection with anti-human-IgG (H+L)-HRP, OD450
Procedure: as §1

[4] = target: T2, Recombinant hPD-L1 protein …; assay: ELISA, recombinant hPD-L1 (Acrobiosystems PD1-H5253) coated at 0.5 ug/mL, detection with anti-human-IgG (H+L)-HRP, OD450
Procedure: The binding activities of the fusion proteins to human PD-L1 (hPD-L1) were determined using ELISA. […] The plate was blocked with 5% slim milk powder in the coating buffer at 37° C. for 1 h. […] Finally, 1:5000 diluted anti-human-IgG (H+L)-HRP was added. After an incubation at 37° C. for 1 h, TMB substrate was added for color development. The data was collected using a microplate reader.

[5] = target: T4, His-tagged human PD-L1 (hPD-L1-His) (human, UniProt Q9NZQ7 19-238, limits assumed); assay: SPR (Biacore T200), Ab0033 captured on Protein A chip, hPD-L1-His 100 nM as analyte, 1:1 Langmuir fit
T4 construct: not shown: His tag
T4 sequence (Q9NZQ7 19-238 limits assumed): as above
Procedure: as §2
Data were processed with Biacore T200 evaluation software 3.0. The binding kinetics were analyzed by globally fitting the data with the 1:1 Langmuir binding model to obtain the association rate (kₒₙ) and dissociation rate (koff). The affinity (KD) was calculated using the formula: KD=koff/kₒₙ.

| binding result (LC0030-1) | EC50 (read off the curve) [1] [pM] | binding result [2] | binding result [3] | EC50 (read off the curve) [4] [pM] | Kd [5] [pM] | koff [5] [s⁻¹] | kon [5] [M⁻¹ s⁻¹] | Binder |
| --- | --- | --- | --- | --- | --- | --- | --- | --- |
| binds | – | – | – | – | – | – | – | B1 |
| – | ~100 | no binding (tested: 200 nM) | no binding (tested: about 40 nM) | ~80 | 608 | 0.0012 | 1.98e+06 | B2 |
